Results: the supplement of paper PMC9170038

System: MS2 coat protein
Assay: apparent KD of MS2 coat protein; designed switch direction (-1 OFF switch, 1 ON switch): -1; higher = weaker reporter binding
Method in brief: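 An oligonucleotide input, 200 uM small-molecule ligand, or no input was present during titration of SNAP-549-labelled MS2 coat protein, which was doubled from 0.7 or 1.5 nM to 3 µM. Designed RNA switches had been transcribed on Illumina chips by stalled E. coli RNA polymerase. Apparent KD per design is the median over clusters of curves fitted to normalised cluster fluorescence.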

[1] = Eterna round: R95, input ligand: FMN 200 uM
[2] = Eterna round: R95, input ligand: microRNA oligo, concentration not stated
[3] = Eterna round: R95, input ligand: none
[4] = input ligand: microRNA oligo, concentration not stated

| Sequence | apparent KD of MS2 coat protein [2] [nM] | apparent KD of MS2 coat protein (input ligand: FMN 200 uM) [nM] | apparent KD of MS2 coat protein (input ligand: none) [nM] | also measured |
| --- | --- | --- | --- | --- |
| AGUAGAUCUACGCUUGCGUGGAUCUGCAAUGCAGGUGUUACAUGAGGAUCACCCAUGUCCUCAUUUGCUCGUCUUAG [JL turnoff v2 99.06] (puzzle: Sensor v3, turn-off variant 2) | 663 | – | – | apparent KD of MS2 coat protein [1]: 97.4 nM; apparent KD of MS2 coat protein [3]: 91.9 nM |
| AAUAAUAAGGAGGAUAUCGUAUGCGAAAGCAUACGAGAAGGCCUAACAUGAGGAUCACCCAUGUUCCUCAAUAA [Mat - Exclusion 6 - Eli Mod - D55] (puzzle: Exclusion 6) | 254 | – | – | apparent KD of MS2 coat protein [1]: 659 nM; apparent KD of MS2 coat protein [3]: 259 nM |
| CGUCUGUAAGGAUAUGGUUGCAUCGACAUGAGGAUCACCCAUGUAACGUGGGACUAGUGAUUAGAAGGUACGAACG [EX5 #61] (Eterna round: R97, puzzle: Exclusion 5) | – | 110 | 133 | – |
| GUACUGACAGGAUAUACAUGAGGAUCACCCAUGUCCUUAGGCUGACAAAAGUCAGCAAGUAGAAGGGUCUGUAC [Omei Ex3 Model Bachelor's Dilema v3] (Eterna round: R97, puzzle: Exclusion 3) | – | 1500 | 85.5 | – |
| CUAGUCCGAGGAUAUAUUAUGUGAAACAUGAGGAUCACCCAUGUAAUAUGAUGGAUGUAAAUAGAAGGCGGACUAG [Mat - Exclusion 5 - JL mod - D25] (puzzle: Exclusion 5) | 17.4 | – | – | apparent KD of MS2 coat protein [1]: 37.9 nM; apparent KD of MS2 coat protein [3]: 36.1 nM |
| UUAUUAUAUGUAGGAUAUGCGUAUUAUUAUUAUGCAGAAGGACAUGAGGAUCACCCAUGUAUAUUAUUAUUAUAUAUUAUAUAU [Title] (Eterna round: R96, puzzle: Exclusion NG 1) | – | – | – | apparent KD of MS2 coat protein [4]: 23.5 nM |
| ACAAGCUUUUUGCUCGUCGAGUAGAAACGUGAGAGCGAGACAUGAGGAUCACCCAUGUAAAGGCAGUAGGUGGAGAU [JR_SV3TOV2_Sub025] (puzzle: Sensor v3, turn-off variant 2) | 43.2 | – | – | apparent KD of MS2 coat protein [1]: 33.2 nM; apparent KD of MS2 coat protein [3]: 33.9 nM |
| UCGCUGCGAGGAUAUACAUGAGGAUCACCCAUGUACGGGUCCGGGUUUGAGUUGAUGAGUAGAAGGCGCAGUGA [JL Laongeedie mod 13] (puzzle: Exclusion 3) | 79.2 | – | – | – |
| GUAAAGUGAGGAUAUGGUAAAGUAAGUAUUUAGUAAGUAAUCCAGAAGGCACAUGAGGAUCACCCAUGUAAAUG [Mat - Exclusion 4 - D98] (puzzle: Exclusion 4) | 29.2 | – | – | – |
| AAAUAGCAUGAGGAUAUUGAACUGUAUAUAGUACGAGAAGGCAUGACAUGAGGAUCACCCAUGUUUUGUUGGGA [EX6 #3] (Eterna round: R97, puzzle: Exclusion 6) | – | 114 | 33.2 | – |
| AGUGUGUGGCAGGAUAUGCUAUUGAUUGGUGAAGCAGAAGGGUCUACAUGAGGAUCACCCAUGUAAGCGGUUGA [Ex6 #28] (Eterna round: R97, puzzle: Exclusion 6) | – | 327 | 46.4 | – |
| AACUCAUGUUCAGGAUAUCGCGUUCCAAAGACAUGAGAAGGGAACAUGAGGAUCACCCAUGUGCCCGGUCUCAGACCGGGCUUC [Legebi] (Eterna round: R96, puzzle: Exclusion NG 1) | – | 272 | 97.1 | apparent KD of MS2 coat protein [4]: 71 nM |
| CAGGAUAGAGGAUAUACAUAGAUACAGAUUCGUGUAAUCCUACAUGAGGAUCACCCAUGUAGAAGGCUAUCCUG [Fiskers Ex 2 - 20] (puzzle: Exclusion 2) | 13.2 | – | – | – |
| UAUUAGCAAGUGAGAUCCGACAUGAGGAUCACCCAUGUGCUCGUCUUAUAAGGUAAUAUGACAAAAGUCAUAUUACC [Elimod 5 - Jieux - Sensor, turn-off variant 1] (Eterna round: R97, puzzle: Sensor, turn-off variant 1) | – | 301 | 293 | – |
| CCAAGCUGUGUGAGGAUAUGCUGAACCUUGGUUCAGCAGAAGGCACAUGAGGAUCACCCAUGUGAAGAGCUUGG [Mat - Exclusion 4 - JL Mod - D96] (puzzle: Brourd's mod of Exclusion 4) | 16.6 | – | – | – |
| CCUCCACAGGAGGAUAUCAUCAAACUAUUGUGAUGAGAAGGCCUGACAUGAGGAUCACCCAUGUUAACGUGAUG [Mod of Brourd 8 - Jieux - Exclusion 6] (Eterna round: R97, puzzle: Exclusion 6) | – | 209 | 58.1 | – |
| GCUCGUUUUGUCAGGAUAUUGAGUCAGCUUAAGCUCGAGAAGGGACAUGAGGAUCACCCAUGUACCGCACAAUU [BmEX4 B.29] (Eterna round: R97, puzzle: Brourd's mod of Exclusion 4) | – | 16.3 | 11.1 | – |
| AAGAAACAUGAGGAUCACCCAUGUGAGGAUAUGACAAAGAAAAGAAAAGAAAGAAGACUCAGAAGGCACAAAGG [salish99-ex1_r3_039] (puzzle: Exclusion 1) | 40.6 | – | – | apparent KD of MS2 coat protein [1]: 46.3 nM; apparent KD of MS2 coat protein [3]: 52 nM |

| Sequence | apparent KD of MS2 coat protein [2] [nM] | apparent KD of MS2 coat protein (input ligand: FMN 200 uM) [nM] | apparent KD of MS2 coat protein (input ligand: none) [nM] | also measured |
| --- | --- | --- | --- | --- |
| AGUCGGCGAGGAUAUACAUGAGGAUCACCCAUGUGAUAGAGUGCACGCGUACGUGUACGUAGAAGGCGCUGACA [Mat - Exclusion 3 - Mod of JL D95] (puzzle: Exclusion 3) | 12.6 | – | – | – |
| GCAACGAGAGGAUAUGCUUAACGACCGGCGGAAGCGGAUCCACAUGAGGAUCACCCAUGUAGAAGGCUCGGACC [Eternabot (Original) Solution 24] (Eterna round: R97, puzzle: Exclusion 2) | – | 35.8 | 27.4 | – |
| ACUUAUAGAGGAUAUACAGAUUAUUACAUGAGGAUCACCCAUGUUCUUCAAUGUAUAUAUGUAGAAGGCUAAGGAA [JL-ex5-4.23 Malcolm mod] (Eterna round: R97, puzzle: Exclusion 5) | – | 381 | 82.2 | – |
| ACUAAUUGAGGAUAUACAUUGAUUUACAUGAGGAUCACCCAUGUUCAAACAUGUAUUUAUGUAGAAGGCAGAAGAA [JR_Ex5_Sub065] (Eterna round: R97, puzzle: Exclusion 5) | – | 23 | 17.5 | – |
| UUUUUACAUGAGGAUCACCCAUGUGAGGAUAUGGAGCGCGACCGCGCGGUCGCGUACACCAGAAGGCGCAUGAU [1st #77] (Eterna round: R97, puzzle: Exclusion 1) | – | 243 | 51.7 | – |
| UGGUCACAUGAGGAUCACCCAUGUCAGGAUAUCUACAUUGAAGCUUCGGCUUCAAUGUAGAGAAGGGAUAUAAU [E1/9-B1] (Eterna round: R97, puzzle: Exclusion 1) | – | 167 | 71.4 | – |
| AUAAAUCAUGUAGGAUAUGCGUAGCGAAGCUAUGCAGAAGGACAUGAGGAUCACCCAUGUCUUUCCGUCUGCGUACAGACGGAA [Mat - Exclusion NG 1 - Mod of JL - D42] (Eterna round: R96, puzzle: Exclusion NG 1) | – | 149 | 24.1 | apparent KD of MS2 coat protein [4]: 20.1 nM |
| ACAUGUAUUGCAGGAUAUGGGACACAUGAGGAUCACCCAUGUGACCAUAUGUAAUGCCACGGGUCUCAGAAGGGUAUGUACAUG [Ex NG2 #44] (Eterna round: R96, puzzle: Exclusion NG 2) | – | 12.8 | 14.1 | apparent KD of MS2 coat protein [4]: 10.3 nM |
| GCAGUGACAUGAGGAUCACCCAUGUGGAACUCGUGAAUAAGCGAGGAUAUCUCAAGAUAUCAAAGAGAGAAGGCGUACACUGCA [Diorso] (Eterna round: R96, puzzle: Exclusion NG 3) | – | 731 | 229 | apparent KD of MS2 coat protein [4]: 159 nM |
| UAUUAACAAGCAAGAUCCUACAUGAGGAUCACCCAUGUGCUCGUCUUGUAAGGUACUGUGACGAAAGUCACGGUACC [Sensor 3, v1 - 71] (puzzle: Sensor v3, turn-off variant 1) | 232 | – | – | apparent KD of MS2 coat protein [1]: 22 nM; apparent KD of MS2 coat protein [3]: 18.9 nM |
| GGAGAACAUGAGGAUCACCCAUGUAAGGAUAUGCAAAAGGAUAUAGAAGGAAAAAAAAGCAGAAGGUACAAAGG [salish99-ex1_r3_101] (puzzle: Exclusion 1) | 81.9 | – | – | apparent KD of MS2 coat protein [1]: 79.5 nM; apparent KD of MS2 coat protein [3]: 75.1 nM |
| AAAGAGCAAGGAUAUACAUGAGGAUCACCCAUGUAGUACGUGAACCAGGUUUUCCUGAGUAGAAGGUGCAGACA [Dibira] (puzzle: Exclusion 3) | 28.1 | – | – | – |
| CCAGGCAGUGUGAGGAUAUCGUGGUCCUUGGAUCACGAGAAGGCACAUGAGGAUCACCCAUGUGAAUAGCUUGG [Mat - Exclusion 4 - JL Mod - D100] (puzzle: Brourd's mod of Exclusion 4) | 21.9 | – | – | – |
| GGAUAGUGAGGAUAUCGAUGUUAGGAGGAGUAGAUAGGAGGCGAGAAGGCACAUGAGGAUCACCCAUGUAUGGA [JR_Exclu4_Sub068] (puzzle: Exclusion 4) | 47.8 | – | – | – |
| GAUGUUCGAGUUAGGAUAUGAAUCCAUACCGGACAUCAGAAGGAACUUGAGGAUCACCCAAGUGGGAAAGAAAU [Orzavera] (Eterna round: R97, puzzle: Brourd's mod of Exclusion 4) | – | 26.3 | 23.5 | – |
| CUACCCUGAGGAUAUCCACCGUGAUACAUGAGGAUCACCCAUGUUAAUGCCUGAGUUCCCGGAGAAGGCAGAUUCC [Megrez2] (Eterna round: R97, puzzle: Exclusion 5) | – | 27.2 | 30.5 | – |
| AUUACUAACACGAAAGUGUUAGUACAAUAAGCUUGUGAAACAUGAGGAUCACCCAUGUCCUCAUAAGCUCGUCUUAA [salish99_TOv2_r3_010] (puzzle: Sensor v3, turn-off variant 2) | 217 | – | – | apparent KD of MS2 coat protein [1]: 14 nM; apparent KD of MS2 coat protein [3]: 11.9 nM |
